For assay [1], the target named is T1, biotinylated peptide corresponding to the 17 N-terminal amino acid residues of huntingtin (Nt-HD) (UniProt P42858 1-17).
T1 construct: range 1-17; Synthetic peptide; Captured on streptavidin (beads, plates or a BIAcore chip); also called biotinylated Nt-HD; biotinylated HD-peptide
T1 peptide (looked up): MATLEKLMKAFESLKSF-biotin
Nature of the assay: BIAcore 2000 surface plasmon resonance, C4 sFv at 60, 80 and 100 nM over biotinylated HD peptide on a streptavidin sensor chip. (Surface plasmon resonance follows binding to a sensor surface in real time, without labels.)
Description: (§1) For regeneration of the surface after binding of intrabody, 5 μl of 50 mM NaOH containing 1 M NaCl was injected, resulting in a return to baseline. […] The koff was determined from the dissociation part of the sensorgram at the highest concentration of intrabody analyzed by using a flow rate of 20 μl/min. The Kd was calculated as koff/kₒₙ.
(§2) To characterize the precise binding properties of the intrabody of the invention, further qualitative and quantitative studies of sFv binding to immobilized antigen were conducted in vitro.

Assay [2] deals with T1, biotinylated peptide corresponding to …. The assay is described as follows: SPR, BIAcore 2000; HD peptide (1-17) with C-terminal biotin on a streptavidin chip, sFv in flow.
Description: as §1, §2
The target is the same in assay [3]. Nature of the assay: SPR, BIAcore 2000; HD peptide (1-17) with C-terminal biotin on a streptavidin chip, sFv in flow; 1:1 Langmuir model.
Description: as §1, §2

No end group written: not given here.

As a reminder, the koff is the rate constant with which the complex falls apart. As usually defined, the kon is the second-order rate constant of association. A high value points to fast association. As usually defined, the Kd is the constant that tells how readily two partners part at equilibrium. A high value points to lower affinity.

B1: α-Nt-HD-C4 sFv (purified soluble sFv) (scFv)
scFv: QVQLQESGGGLVQPGGSLRLSCAASGFTFSSYSMSWVRQAPGKGLEWVAVISYDGSNKYYADSVKGRFTISRDNSKNTLYLQMNSLRAEDTAVYYCARDRYFDLWGRGTLVTVSSGGGGSGGGGSGGGGSQSALTQPASVSGSPGQSITISCTGTSSDIGAYNYVSWYQQYPGKAPKLLIYDVSNRPSGISNRFSGSKSGDTASLTISGLQAEDEADYYCSSFANSGPLFGGGTKVTVL
notes: Human sFv (VH-linker-VL) from a phage display library; Expressed in E. coli from pSYN-1 and purified on Ni-NTA; In the first ELISA screens it was used as bacterial supernatant from pHEN-1; Two subclones (clone 1, clone 2) were purified; they are treated here as the same molecule; also called N-HD-C4 sFv; anti-huntingtin intrabody C4 sFv; not shown: hexaHis tail from the pSYN-1 vector (sFv is also …)
On to B1, for which, in assay [1], the koff worked out at 0.0015 s⁻¹ and the kon was determined as 190000 M⁻¹ s⁻¹. The molecule also had a Ka in assay [2] of 1.3e+08 M⁻¹. The dissociation constant Kd in assay [3] amounted to 7.9 nM.

For the origin of these results see patent publication US20050255113A1, “Methods and compositions for inhibiting polypeptide accumulation associated with neurological disorders” (New York State Department of Health and Abgenix, Inc., priority 1999, published 2005).
